In article PMC3537886 (Nature structural & molecular biology, 2012):
Blank lines part the entries; values can stand above or below the molecule they belong to.

Tests used:
[1] = molecular target: biotinylated soluble leucine-zippered HLA-DO with αP10aA (bio-szDOv), beta chain with C-terminal Avitag (human) (UniProt P06340); assay: BLI
[2] = molecular target: soluble HLA-DM (sDM), wild type (human, UniProt P28067;P28068); assay: enzyme inhibition kinetics

binding affinity relative to the wild type (fold of the wild-type affinity) [1]: 0.0025
Molecule: sDM mutant αR98E,R194E (from UniProt P28067;P28068) (complex)

Ki [2]: 290 ± 20 nM
B1: soluble HLA-DO Ig-fusion protein (sDO-Fc) (Fc fusion)
chain 1: TKADHMGSYGPAFYQSYGASGQFTHEFDEEQLFSVDLKKSEAVWRLPEFGDFARFDPQGGLAGIAAIKAHLDILVERSNRSRAINVPPRVTVLPKSRVELGQPNILICIVDNIFPPVINITWLRNGQTVTEGVAQTSFYSQPDHLFRKFHYLPFVPSAEDVYDCQVEHWGLDAPLLRHWELQVPIPPPDAME
chain 2: TDSPEDFVIQAKADCYFTNGTEKVQFVVRFIFNLEEYVRFDSDVGMFVALTKLGQPDAEQWNSRLDLLERSRQAVDGVCRHNYRLGAPFTVGRKVQPEVTVYPERTPLLHQHNLLHCSVTGFYPGDIKIKWFLNGQEERAGVMSTGPIRNGDWTFQTVVMLEMTPELGHVYTCLVDHSSLLSPVSVEWRAQSEYSWRK
